These are literature values, as cited in article PMC3139910.

For this data set, the target named is CCR7 (Homo sapiens) (UniProt P32248).
Chain of UniProt P32248 (P32248 25-378): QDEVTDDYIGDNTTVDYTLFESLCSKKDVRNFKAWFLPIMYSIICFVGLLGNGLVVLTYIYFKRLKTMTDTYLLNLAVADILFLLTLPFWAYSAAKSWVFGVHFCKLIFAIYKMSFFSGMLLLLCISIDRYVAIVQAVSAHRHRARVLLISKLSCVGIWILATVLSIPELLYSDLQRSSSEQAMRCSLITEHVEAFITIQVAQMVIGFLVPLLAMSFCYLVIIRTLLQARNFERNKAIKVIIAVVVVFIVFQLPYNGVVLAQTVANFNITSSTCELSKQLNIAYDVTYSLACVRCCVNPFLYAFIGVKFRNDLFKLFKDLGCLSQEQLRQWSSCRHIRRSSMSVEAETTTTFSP

For CCL21 (from UniProt O00585), the Kd was 5 nM.
